Measurements as given in US20230242675A1 (SHANGHAI EPIMAB BIOTHERAPEUTICS, published 2023).
Substitutions are numbered along the chain they refer to. Names and notes keep the numbering of the source.

Legend:
[1] = biological target: T1, human PD-L1/His fusion protein (human, UniProt Q9NZQ7 19-239); assay: BLI off-rate; test group 3
Method: (§1) All 15 antibodies in Table 13 were assayed for and ranked by dissociation rate constant (koff). […] Briefly, antibodies were characterized for affinities and binding kinetics by Octet®RED96 biolayer interferometry (Pall ForteBio LLC). Antibodies were captured by Anti-hIgG Fc Capture (AHC) Biosensors (Pall) at a concentration of 100 nM for 30 seconds. Sensors were then dipped into running buffer (1×pH 7.2 PBS, 0.05% Tween 20, 0.1% BSA) for 60 seconds to check the baseline. Binding was measured by dipping sensors into a single concentration of recombinant human PD-L1/His fusion protein (Novoprotein). Dissociation was followed by dipping sensors into running buffer for 1200 seconds. The association and dissociation curves were fitted to a 1:1 Langmuir binding model using ForteBio Data Analysis software (Pall). […] The off-rate ratio serves as a data normalization. Accordingly, in each test group, the off-rate ratios of the humanized antibodies can be compared with that of the chimeric antibody, and the off-rate ratios of each of the humanized antibodies can be compared to one another within all test groups.

[2] = biological target: T1, human PD-L1/His fusion protein; assay: BLI Octet RED96, antibody on AHC sensor, single conc. PD-L1/His; test group 3
Method: as §1

[3] = biological target: T2, human TGFβ1 (human, UniProt P01137 279-390); assay: ELISA: human TGFβ1 coated (1 µg/ml), binding protein titrated 0.0006-10 nM, anti-human IgG Fc-HRP, OD450
T2 construct: also called TGFβ isoform 1; TGFβ1 (Cat. No. CA59, Novoprotein)
Method: (§2) Accordingly, each of the wells of the ELISA microplates provided a reaction mixture to test the ability of a particular binding protein at a particular concentration to bind to a particular TGFβ isoform. […] Plates were washed three times in washing buffer (PBS containing 0.05% Tween 20) and blocked for 1 hour at 37° C. with 200 μl per well of blocking buffer (1% BSA in PBS containing 0.05% Tween 20). […] The wells containing the various binding mixtures were incubated at 37° C. for 1 hour to permit binding to TGFβ protein on the surface of the wells. Thereafter, the wells were washed four times with washing buffer, and anti-human IgG Fc HRP (Sigma, Catalog No. A0170) was diluted 1:10000 and added to the wells at 100 μl per well to detect binding protein that was bound to TGFβ protein present on the surface of a well. The plates were incubated for 1 hour at 37° C. and washed four times with washing buffer. 100 μl of tetramethylbenzidine (TMB) chromogenic solution were added per well. Following color development, the reaction was stopped with 1 N HCl, and absorbance at 450 nm (OD450) was measured on a VARIOSKAN™ LUX microplate reader (Thermo Scientific™).

[4] = biological target: T3, human TGFβ2 (human, UniProt P61812 303-414); assay: ELISA: human TGFβ2 coated (1 µg/ml), binding protein titrated 0.0006-10 nM, anti-human IgG Fc-HRP, OD450
T3 construct: also called TGFβ isoform 2; TGFβ2 (Cat. No. CJ79, Novoprotein)
T3 sequence (looked up): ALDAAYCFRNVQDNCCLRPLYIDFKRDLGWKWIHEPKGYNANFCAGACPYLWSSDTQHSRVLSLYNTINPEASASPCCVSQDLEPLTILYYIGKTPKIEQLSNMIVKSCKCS
Method: as §2

[5] = biological target: T1, human PD-L1/His fusion protein; assay: BLI off-rate; test group 1
Method: as §1

[6] = biological target: T1, human PD-L1/His fusion protein; assay: BLI Octet RED96, antibody on AHC sensor, single conc. PD-L1/His; test group 1
Method: as §1

[7] = biological target: T4, biotinylated human PD-L1 protein (ACROBiosystems, H82E5) (human, UniProt Q9NZQ7 19-238, biotinylated (site not stated)); assay: dual-binding ELISA: human TGFβ2 coated, 5 nM binding protein bound to it, biotinylated human PD-L1 titrated 0.0006-10 nM (axis labelled Ab (nM)), streptavidin-HRP, OD450; the EC50 is of the titrated PD-L1
T4 construct: also called biotinylated PD-L1
Method: (§3) Briefly, ELISA plates were incubated overnight at 4° C. with 100 μl of a human TGFβ isoform diluted in PBS buffer, pH 7.4, at 1 μg/ml, to allow the human TGFβ isoform to coat (adsorb to) the surface of the wells. Plates were washed three times in washing buffer (PBS containing 0.05% Tween 20) and blocked for 1 hour at 37° C. with 200 μl per well blocking buffer (1% BSA in PBS containing 0.05% Tween 20). […] The wells were washed four times with washing buffer, and Streptavidin-HRP (Merck, RABHRP3) was diluted 1:10000 and added to the wells at 100 μl per well. The plates were incubated for 1 hour at 37° C. and washed four times in washing buffer. 100 μl of tetramethylbenzidine (TMB) chromogenic solution were added per well.

[8] = biological target: T1, human PD-L1/His fusion protein; assay: BLI Octet Red, binding protein on AHC sensor, PD-L1-his in solution
Method: Sensors were then dipped into running buffer (1×pH 7.2 PBS, 0.05% Tween 20, 0.1% BSA) for 60 seconds to check baseline. Binding was measured by dipping sensors into a series diluted concentration of recombinant human PD-L1-his protein. Dissociation was followed by dipping sensors into running buffer for 1200 seconds. The association and dissociation curves were fitted to a 1:1 Langmuir binding model using ForteBio Data Analysis software (Pall). The equilibrium dissociation constant KD (M) of the reaction between antibodies and related target proteins was then calculated from the kinetic rate constants using the formula KD=koff/kₒₙ.

[9] = biological target: T4, biotinylated human PD-L1 protein …; assay: dual-binding ELISA: human TGFβ3 coated, 5 nM binding protein bound to it, biotinylated human PD-L1 titrated 0.0006-10 nM (axis labelled Ab (nM)), streptavidin-HRP, OD450; the EC50 is of the titrated PD-L1
Method: as §3

T2 sequence (P01137 279-390 limits assumed): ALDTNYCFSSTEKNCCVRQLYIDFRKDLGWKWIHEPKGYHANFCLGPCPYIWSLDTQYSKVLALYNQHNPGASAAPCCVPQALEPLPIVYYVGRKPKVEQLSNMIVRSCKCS
T4 sequence (Q9NZQ7 19-238 limits assumed): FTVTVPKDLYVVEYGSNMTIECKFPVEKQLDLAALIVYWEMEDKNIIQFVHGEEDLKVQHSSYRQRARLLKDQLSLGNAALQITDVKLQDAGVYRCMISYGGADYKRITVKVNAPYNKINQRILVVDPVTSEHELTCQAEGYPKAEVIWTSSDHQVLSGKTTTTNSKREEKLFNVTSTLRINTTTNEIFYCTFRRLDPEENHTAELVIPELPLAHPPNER
T1 sequence (Q9NZQ7 19-239 limits assumed): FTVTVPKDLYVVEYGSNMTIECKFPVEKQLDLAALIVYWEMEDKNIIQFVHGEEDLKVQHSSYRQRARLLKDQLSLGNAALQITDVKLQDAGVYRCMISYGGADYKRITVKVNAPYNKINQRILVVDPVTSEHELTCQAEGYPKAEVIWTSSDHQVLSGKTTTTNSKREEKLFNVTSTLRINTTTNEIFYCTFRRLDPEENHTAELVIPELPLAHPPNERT

B1: EM0005-86c-G55A (antibody, human IgG1, V domains shown)
VH: QVQLQQSGAELVRPGSSVKMSCKTSGYTFTTYGINWVKQRPGQGLEWIGYIYIGNAYTEYNEKFKGKATLTSDPSSRTAYMQLSSLTSEDSAIYFCARDLMVIAPKTMDYWGQGTSVTVSS
VL: DIQMNQSHKFMSTSVGDRVSITCKASQDVGTAVAWYQQKPGQSPKLLIYWASTRHTGVPDRFTGGGSGTDFTLTISNVQSEDLADYFCQQYSSYPYTFGGGTKLEMK
notes: Chimeric antibody with G55A (Kabat) in CDR-H2; also called HuEM0005-86-G55A
[1]
  Off-Rate Ratio to that of EM0005-86c: 108%
[2]
  koff: 0.00111 s⁻¹

B2: bintrafusp alfa (bispecific antibody, human IgG1, lambda)
heavy: not shown
light: QSALTQPASVSGSPGQSITISCTGTSSDVGGYNYVSWYQQHPGKAPKLMIYDVSNRPSGVSNRFSGSKSGNTASLTISGLQAEDEADYYCSSYTSSSTRVFGTGTKVTVLGQPKANPTVTLFPPSSEELQANKATLVCLISDFYPGAVTVAWKADGSPVKAGVETTKPSKQSNNKYAASSYLSLTPEQWKSHRSYSCQVTHEGSTVEKTVAPTECS
notes: also called M7824; Bintrafusp alfa protein
[3]
  EC50: 0.696 nM
[4]
  EC50: 3.6 nM

B3: HuEM0005-86-4 (antibody, human IgG1, V domains shown)
VH: EVQLVQSGAEVKKPGASVKVSCKASGYTFTTYGINWVRQAPGQGLEWIGYIYIGNGYTEYNEKFKGRVTLTSDTSTSTAYMELSSLRSDDTAVYYCARDLMVIAPKTMDYWGQGTTVTVSS
VL: DIQMTQSPSSVSASVGDRVTITCKASQDVGTAVAWYQQKPGKAPKLLIYWASTRHTGVPDRFTGSGSGTDFTLTISSLQPEDFATYYCQQYSSYPYTFGGGTKVEIK
[5]
  Off-Rate Ratio to that of EM0005-86c: 78%
[6]
  koff: 0.000957 s⁻¹

B4: HuEM0005-86-5 (antibody, human IgG1, V domains shown)
VH: B3 VH with R67K, V68A
VL: B3 VL
[1]
  Off-Rate Ratio to that of EM0005-86c: 120%
[2]
  koff: 0.00124 s⁻¹

B5: HuEM0005-86-1 (antibody, human IgG1, V domains shown)
VH: B3 VH with I48M, L70M, S72T
VL: B3 VL
[5]
  Off-Rate Ratio to that of EM0005-86c: 120%
[6]
  koff: 0.00147 s⁻¹

B6: HuEM0005-86-6 (antibody, human IgG1, V domains shown)
VH: B3 VH with A24T, R67K, V68A, T74P, S77R
VL: B3 VL
notes: measured without the G55A change
[5]
  Off-Rate Ratio to that of EM0005-86c: 99%
[6]
  koff: 0.00122 s⁻¹

B7: HuEM0005-86-2 (antibody, human IgG1, V domains shown)
VH: B3 VH with I48M, L70M
VL: B3 VL
[5]
  Off-Rate Ratio to that of EM0005-86c: 72%
[6]
  koff: 0.000887 s⁻¹

B8: HuEM0005-86-13 (antibody, human IgG1, V domains shown)
VH: B3 VH with A24T, R67K, V68A, T74P, S77R
VL: B3 VL with A43S, Y87F
[1]
  Off-Rate Ratio to that of EM0005-86c: 116%
[2]
  koff: 0.00119 s⁻¹

B9: HuEM0005-86-14 (antibody, human IgG1, V domains shown)
VH: B3 VH with T74P, S77R
VL: B3 VL with A43S, Y87F
[1]
  Off-Rate Ratio to that of EM0005-86c: 81%
[2]
  koff: 0.000838 s⁻¹

B10: HuEM0005-86-3 (antibody, human IgG1, V domains shown)
VH: B3 VH with I48M
VL: B3 VL
[5]
  Off-Rate Ratio to that of EM0005-86c: 115%
[6]
  koff: 0.00142 s⁻¹

B11: FIT1012-3a TGFβ/PD-L1 bispecific binding protein (bispecific antibody, human IgG1, kappa)
heavy: not shown
chain: TIPPHVQKSVNNDMIVTDNNGAVKFPQLCKFCDVRFSTCDNQKSCMSNCSITSICEKPQEVCVAVWRKNDENITLETVCHDPKLPYHDFILEDAASPKCIMKEKKKPGETFFMCSCSSDECNDNIIFSEEYNTSNPDASTKGPSVFPLAPSSKSTSGGTAALGCLVKDYFPEPVTVSWNSGALTSGVHTFPAVLQSSGLYSLSSVVTVPSSSLGTQTYICNVNHKPSNTKVDKKVEPKSC
light: DIQMTQSPSSVSASVGDRVTITCKASQDVGTAVAWYQQKPGKAPKLLIYWASTRHTGVPDRFTGSGSGTDFTLTISSLQPEDFATYYCQQYSSYPYTFGGGTKVEIKRTVAAPSVFIFPPSDEQLKSGTASVVCLLNNFYPREAKVQWKVDNALQSGNSQESVTEQDSKDSTYSLSSTLTLSKADYEKHKVYACEVTHQGLSSPVTKSFNRGEC
notes: Six-chain protein; anti-PD-L1 moiety from HuEM0005-86-6 with G55A; four TGFβR2(ECD) traps
[3]
  EC50 (read off the curve): ~0.4 nM
[7]
  EC50: 0.205 nM
[8]
  Kd: 0.609 nM
  koff: 0.000344 s⁻¹
  kon: 564000 M⁻¹ s⁻¹
[4]
  EC50: 0.525 nM
[9]
  EC50: 0.205 nM

B12: FIT1012-4a TGFβ/PD-L1 bispecific binding protein (bispecific antibody, human IgG1, kappa)
heavy: not shown
chain: B11 chain
light: not shown
notes: Six-chain protein; anti-PD-L1 moiety from HuEM0005-87-1; four TGFβR2(ECD) traps
[3]
  EC50: 0.29 nM
[7]
  EC50: 0.114 nM
[8]
  Kd: 1.3 nM
[4]
  EC50: 0.288 nM
[9]
  EC50: 0.114 nM
